Test results: patent publication US11653679B2, “High-purity steviol glycosides” (PureCircle Sdn Bhd, priority 2014, dated 2023)
Where a chain is given by its changes, count along the chain named.

B1: gi115454819_NP_001051010.1: Os03g0702500 [Oryza sativa Japonica Group], SEQ ID NO:3 (protein, listed as Oryza sativa)
chain: MDDAHSSQSPLHVVIFPWLAFGHLLPCLDLAERLAARGHRVSFVSTPRNLARLPPVRPELAELVDLVALPLPRVDGLPDGAEATSDVPFDKFELHRKAFDGLAAPFSAFLDTACAGGKRPDWVLADLMHHWVALASQERGVPCAMILPCSAAVVASSAPPTESSADQREAIVRSMGTAAPSFEAKRATEEFATEGASGVSIMTRYSLTLQRSKLVAMRSCPELEPGAFTILTRFYGKPVVPFGLLPPRPDGARGVSKNGKHDAIMQWLDAQPAKSVVYVALGSEAPMSADLLRELAHGLDLAGTRFLWAMRKPAGVDADSVLPAGFLGRTGERGLVTTRWAPQVSILAHAAVCAFLTHCGWGSVVEGLQFGHPLIMLPILGDQGPNARILEGRKLGVAVPRNDEDGSFDRGGVAGAVRAVVVEEEGKTFFANARKLQEIVADREREERCIDEFVQHLTSWNELKNNSDGQYP
B2: gi187373030_ACD03249.1: UDP-glycosyltransferase [Avena strigosa], SEQ ID NO:4 (protein, listed as Avena strigosa)
chain: MAVKDEQQSPLHILLFPFLAPGHLIPIADMAALFASRGVRCTILTTPVNAAIIRSAVDRANDAFRGSDCPAIDISVVPFPDVGLPPGVENGNALTSPADRLKFFQAVAELREPFDRFLADNHPDAVVSDSFFHWSTDAAAEHGVPRLGFLGSSMFAGSCNESTLHNNPLETAADDPDALVSLPGLPHRVELRRSQMMDPKKRPDHWALLESVNAADQKSFGEVFNSFHELEPDYVEHYQTTLGRRTWLVGPVALASKDMAGRGSTSARSPDADSCLRWLDTKQPGSVVYVSFGTLIRFSPAELHELARGLDLSGKNFVWVLGRAGPDSSEWMPQGFADLITPRGDRGFIIRGWAPQMLILNHRALGGFVTHCGWNSTLESVSAGVPMVTWPRFADQFQNEKLIVEVLKVGVSIGAKDYGSGIENHDVIRGEVIAESIGKLMGSSEESDAIQRKAKDLGAEARSAVENGGSSYNDVGRLMDELMARRSSVKVGEDIIPTNDGL
B3: EUGT11: putative UDP-glucoronosyl and UDP-glucosyl transferase [Oryza sativa Japonica Group], from WO/2013/022989A2, SEQ ID NO:8 (protein, listed as Oryza sativa)
chain: MHVVICPLLAFGHLLPCLDLAQRLACGHRVSFVSTPRNISRLPPVRPSLAPLVSFVALPLPRVEGLPNGAESTHNVPHDRPDMVELHLRAFDGLAAPFSEFLGTACADWVMPTSSAPRQTLSSNIHRNSSRPGTPAPSGRLLCPITPHSNTLERAAEKLVRSSRQNARARSLLAFTSPPLPYRDVFRSLLGLQMGRKQLNIAHETNGRRTGTLPLNLCRWMWKQRRCGKLRPSDVEFNTSRSNEAISPIGASLVNLQSIQSPNPRAVLPIASSGVRAVFIGRARTSTPTPPHAKPARSAAPRAHRPPSSVMDSGYSSSYAAAAGMHVVICPWLAFGHLLPCLDLAQRLASRGHRVSFVSTPRNISRLPPVRPALAPLVAFVALPLPRVEGLPDGAESTNDVPHDRPDMVELHRRAFDGLAAPFSEFLGTACADWVIVDVFHHWAAAAALEHKVPCAMMLLGSAHMIASIADRRLERAETESPAAAGQGRPAAAPTFEVARMKLIRTKGSSGMSLAERFSLTLSRSSLVVGRSCVEFEPETVPLLSTLRGKPITFLGLMPPLHEGRREDGEDATVRWLDAQPAKSVVYVALGSEVPLGVEKVHELALGLELAGTRFLWALRKPTGVSDADLLPAGFEERTRGRGVVATRWVPQMSILAHAAVGAFLTHCGWNSTIEGLMFGHPLIMLPIFGDQGPNARLIEAKNAGLQVARNDGDGSFDREGVAAAIRAVAVEEESSKVFQAKAKKLQEIVADMACHERYIDGFIQQLRSYKD
B4: UGT76G1var89: UGT76G1 variant, mutations F41L_E229A_E231A_F265L_P272A (protein, UniProt Q6VAB4 1-458, looked up, variant F41L E229A E231A F265L P272A)
UDP-glycosyltransferase 76G1: MENKTETTVRRRRRIILFPVPFQGHINPILQLANVLYSKGLSITIFHTNFNKPKTSNYPHFTFRFILDNDPQDERISNLPTHGPLAGMRIPIINEHGADELRRELELLMLASEEDEEVSCLITDALWYFAQSVADSLNLRRLVLMTSSLFNFHAHVSLPQFDELGYLDPDDKTRLEEQASGFPMLKVKDIKSAYSNWQILKEILGKMIKQTKASSGVIWNSFKELEESALATVIREIPAPSFLIPLPKHLTASSSSLLDHDRTVLQWLDQQAPSSVLYVSFGSTSEVDEKDFLEIARGLVDSKQSFLWVVRPGFVKGSTWVEPLPDGFLGERGRIVKWVPQQEVLAHGAIGAFWTHSGWNSTLESVCEGVPMIFSDFGLDQPLNARYMSDVLKVGVYLENGWERGEIANAIRRVMVDEEGEYIRQNARVLKQKADVSLMKGGSSYESLESLVSYISSL
B5: UGT76G1var90: UGT76G1 variant, mutations E231A_S241I_S274G_Y397Q_Q425E (protein, UniProt Q6VAB4 1-458, looked up, variant E231A S241I S274G Y397Q Q425E)
UDP-glycosyltransferase 76G1: B4 UDP-glycosyltransferase 76G1 with L41F, A229E, S241I, L265F, A272P, S274G, Y397Q, Q425E
B6: UGT76G1var95: UGT76G1 variant, mutations A33G_I295M_K303G_I335V_A385T (protein, UniProt Q6VAB4 1-458, looked up, variant A33G I295M K303G I335V A385T)
UDP-glycosyltransferase 76G1: B4 UDP-glycosyltransferase 76G1 with A33G, L41F, A229E, A231E, L265F, A272P, I295M, K303G, I335V, A385T
B7: UGT76G1var6: UGT76G1 variant, mutations Q266S_S357N_I373L (protein, UniProt Q6VAB4 1-458, looked up, variant Q266S S357N I373L)
UDP-glycosyltransferase 76G1: B4 UDP-glycosyltransferase 76G1 with L41F, A229E, A231E, L265F, Q266S, A272P, S357N, I373L
B8: UGT76G1var91: UGT76G1 variant, mutations E224A_L246F_T263S_F265I_Q342K (protein, UniProt Q6VAB4 1-458, looked up, variant E224A L246F T263S F265I Q342K)
UDP-glycosyltransferase 76G1: B4 UDP-glycosyltransferase 76G1 with L41F, E224A, A229E, A231E, L246F, T263S, L265I, A272P, Q342K
B9: UGT76G1var92: UGT76G1 variant, mutations K303G_S357N_V366I_V394I_I407V (protein, UniProt Q6VAB4 1-458, looked up, variant K303G S357N V366I V394I I407V)
UDP-glycosyltransferase 76G1: B4 UDP-glycosyltransferase 76G1 with L41F, A229E, A231E, L265F, A272P, K303G, S357N, V366I, V394I, I407V
B10: UGT76G1var93: UGT76G1 variant, mutations I43V_Q266E_S375M_S389E_V394I (protein, UniProt Q6VAB4 1-458, looked up, variant I43V Q266E S375M S389E V394I)
UDP-glycosyltransferase 76G1: B4 UDP-glycosyltransferase 76G1 with L41F, I43V, A229E, A231E, L265F, Q266E, A272P, S375M, S389E, V394I
B11: UGT76G1var96: UGT76G1 variant, mutations F22L_E229A_L243P_F377C_A385T (protein, UniProt Q6VAB4 1-458, looked up, variant F22L E229A L243P F377C A385T)
UDP-glycosyltransferase 76G1: B4 UDP-glycosyltransferase 76G1 with F22L, L41F, A231E, L243P, L265F, A272P, F377C, A385T

experiment: Catalytic test Rebaudioside A to Rebaudioside D with in-vitro expressed UDP-glucosyltransferases (Examples 20, 21), HPLC; format: biochemical; settings: 0.5 mM Rebaudioside A, 30° C., HPLC
Protocol: The prepared expression medium mix was added to the plasmid solution and the solution was allowed to incubate at 30° C. for 3 hours while mixing the mixture every 45 minutes. 5 μL of the mixture was frozen whereas the remainder was used for the catalytic test for the conversion of Rebaudioside A to Rebaudioside D.
430 μL of a reaction mixture containing 0.5 mM Rebaudioside A, 3 mM MgCl2, 50 mM phosphate buffer (pH7.2) and 2.5 mM UDP-glucose was added to a 1.5 mL sterile microtube. 52 μl of the enzyme expression medium was added and the resulting mixture was allowed to react at 30° C. for 24 hours. 125 μL samples were taken after 2 hours, 16 hours and 24 hours and added to a 115 μL of 60% methanol and 10 μL of 2 N H2SO4. The quenched sample was centrifuged at 18,000 g for 2 minutes at RT. 200 μL was transferred to an HPLC vial and analyzed.
The HPLC assay was performed as follows:
430 μL of a reaction mixture containing 0.5 mM Rebaudioside A, 3 mM MgCl2, 50 mM phosphate buffer (pH7.2) and 2.5 mM UDP-glucose was added to a 1.5 mL sterile microtube. 52 μL of the enzyme expression medium was added and the resulting mixture was allowed to react at 30° C. for 24 hours. 125 μL samples were taken after 2 hours, 16 hours and 24 hours and added to a 115 μL of 60% methanol and 10 μL of 2 N H2SO4. The quenched sample was centrifuged at 18,000 g for 2 minutes at RT. 200 μL was transferred to HPLC vial and analyzed.
(§1) The HPLC assay was performed as described in EXAMPLE 20.

Compared with B1, B2 is higher in “Steviol glycoside conversion in reaction mixture, Reb A” value: 96.7 % area for the first, 99.4 % area for the second.

Going from B1 to B2, the “Steviol glycoside conversion in reaction mixture, Reb D” value falls from 2.1 % area to 0.6 % area.

same assay, conditions: in-vitro expressed enzyme

For B3, the “Conversion RebA to RebD” value was “Active”.
With B1 the “Conversion RebA to RebD” value was “Active”.
In the case of B2, the “Conversion RebA to RebD” value is reported as “Active”.

experiment: Activity of in-vivo produced enzymes for transformation of Rebaudioside A (Example 22); format: biochemical; settings: 0.5 mM, in-vivo produced enzyme lysate
Protocol: Activity tests were performed at 5 mL scale with 1,000 μL of thawed lysate for the transformation of Rebaudioside A using 0.5 mM of substrate, 2.5 mM of UDP-Glucose and 3 mM MgCl2 in 50 mM Sodium Phosphate buffer at pH 7.2. Samples were taken and analyzed by HPLC.
as §1

First: B1
Second: B2
The “Conversion after 45 hrs.” value of the first is higher: 1.1% for the first, 0.8% for the second.

same assay, conditions: after 45 hrs.

B1 and B2 are the same in “Reb D selectivity” value: 100% for the first, 100% for the second.

experiment: Directed evolution of UGT76G1, Rebaudioside D to Rebaudioside M, round 1 (Example 26); format: biochemical; settings: 100 μL fresh lysate, 0.5 mM Rebaudioside D, 30° C., pH 7.2
Method in brief: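 Conversion and initial rate were determined by HPLC with CAD detection on samples taken at 2, 4, 7 and 24 h. Reactions ran at 30 °C in 50 mM phosphate buffer pH 7.2 with lysate, Rebaudioside D (0.5 mM), UDP-glucose (2.5 mM) and MgCl2 (3 mM).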

First: B4
Second: B6
The “conversion Reb D to Reb M after 24 h” value of the first is higher: 1.2% for the first, −1.3% for the second.

Compared with B7, B8 is higher in “conversion Reb D to Reb M after 24 h” value: 0.5% for the first, 1.2% for the second.

Going from B9 to B10, the “conversion Reb D to Reb M after 24 h” value rises from 1.6% to 1.8%.

For B11, the “conversion Reb D to Reb M after 24 h” value was 1.2%.

Going from B4 to B5, the initial rate rises from 2.1E+05 Reb M area/min to 1.9E+07 Reb M area/min.

First: B6
Second: B7
The initial rate of the first is lower: −1.7E+05 Reb M area/min for the first, 1.8E+06 Reb M area/min for the second.

Going from B8 to B9, the initial rate rises from 2.3E+05 Reb M area/min to 3.6E+05 Reb M area/min.

First: B10
Second: B11
The initial rate of the first is higher: 4.5E+05 Reb M area/min for the first, 2.7E+05 Reb M area/min for the second.
